This is an account of results in patent US20260042827A1, “ANTI-WT1 ANTIGEN-BINDING PROTEINS AND USES THEREOF” (UNIVERSITY HEALTH NETWORK, priority 2022, published 2026).

The term IC50 denotes the concentration that gives 50% inhibition. Read a low IC50 as inhibition by little substance.

The assay has as its target T1, HLA-DP4 (human), P20036.
T1 chain 1: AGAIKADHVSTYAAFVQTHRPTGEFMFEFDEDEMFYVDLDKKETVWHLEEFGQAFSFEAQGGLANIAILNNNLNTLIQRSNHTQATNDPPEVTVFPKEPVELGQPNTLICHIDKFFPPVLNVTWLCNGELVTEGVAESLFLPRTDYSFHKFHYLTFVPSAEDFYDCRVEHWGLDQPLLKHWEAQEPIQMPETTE
T1 chain 2: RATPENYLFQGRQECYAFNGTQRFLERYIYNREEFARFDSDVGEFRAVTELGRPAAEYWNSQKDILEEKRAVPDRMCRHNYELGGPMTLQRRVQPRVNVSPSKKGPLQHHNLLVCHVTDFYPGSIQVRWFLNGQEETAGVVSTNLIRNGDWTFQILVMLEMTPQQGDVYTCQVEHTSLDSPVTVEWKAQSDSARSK
The assay can be described thus: competition. The settings on record: modification not given.

In turn, PGCNKRYFKLSHLQMHSAKHT [345A] had an IC50 of 9.37 mM. PGCNKAYFKLSHLQMHSRKHT [333A] registered an IC50 of 0.3 mM. Under PGCAKRYFKLSHLQMHSRKHT [331A] stands 7.46 mM. On to PACNKRYFKLSHLQMHSRKHT [329A], for which the IC50 was 5.44 mM. Under PGCNKRYFKLSHLAMHSRKHT [341A] stands 8.51 mM; under PGCNARYFKLSHLQMHSRKHT [332A], 4.74 mM.
